The subject of this data set is orthotopically implanted BxPC-3 tumors. Put plainly: NIR-fluorescence imaging, orthotopic BxPC-3 pancreatic adenocarcinoma in nude mice. As to conditions: ex vivo NIR fluorescence, 24 h after 1.2 nmol i.v. As to the method: Mice were injected with peptide-IRDye conjugate (~1 nmol) into the tail vein and imaged at various time points (0-72 h) using the IVIS Spectrum CT Imaging System (PerkinElmer) (see Supplemental Materials). For blocking experiments, mice were injected intravenously with unlabeled peptide 5a (128 nmol/mouse) 10 min before 5a-IRDye.
Figure 3 5a-IRDye homes in on orthotopically implanted BxPC-3 tumors. Nu/nu mice were orthotopically implanted with a Matrigel solution containing BxPC-3 cells or a Matrigel solution without cells (n=3-4 mice). After 18 days, mice were injected i.v. with 5a-IRDye (1.2 nmol), and NIR images were acquired after 24 h. A control mouse, which was not surgically manipulated, was injected with the vehicle and used as a reference for quantification of autofluorescence in the NIR region. (A) Representative fluorescence images of the exposed pancreas of control and tumor-bearing mice injected with or without 5a-IRDye as indicated. (B) Ex vivo fluorescence imaging and photographs of the removed pancreas. […]
Images were acquired with three-four mice simultaneously. […] For the quantification of the fluorescence uptake by the exposed pancreas the left kidney was surgically removed before imaging. Regions of interest (ROI) were drawn on the images, and the average (Avg) radiant efficiency was calculated using the Living Image 4.3.1 software (PerkinElmer). […]

`CC[C@H](C)[C@H](NC(=O)[C@H](CCCNC(=N)N)NC(=O)[C@H](CC(C)C)NC(=O)[C@H](CC(=O)O)NC(=O)CNC(=O)[C@H](CCCNC(=N)N)NC(=O)[C@H](CC(C)C)NC(=O)[C@@H](NC(=O)[C@H](CCC(=O)O)NC(=O)[C@H](Cc1ccccc1)NC(=O)[C@@H](N)CSC1CC(=O)N(CCNC(=O)CCCCCN2C(=CC=C3CCCC(C=CC4=[N+](CCCCS(=O)(=O)[O-])c5ccc(S(=O)(=O)O)cc5C4(C)C)=C3Oc3ccc(S(=O)(=O)O)cc3)C(C)(C)c3cc(S(=O)(=O)O)ccc32)C1=O)[C@@H](C)O)C(=O)N[C@@H](CC(C)C)C(=O)N[C@@H](CO)C(=O)N[C@H](C(=O)N[C@@H](CC(C)C)C(=O)N[C@@H](CCCNC(=N)N)C(=O)N[C@H]1Cc2cn(nn2)CCCC[C@@H](C(=O)N[C@@H](CCCCN)C(=O)N[C@@H](CCC(=O)O)C(=O)N[C@@H](CC(C)C)C(=O)N[C@@H](CCC(N)=O)C(=O)N[C@@H](CC(=O)O)C(N)=O)NC(=O)[C@H](CC(C)C)NC(=O)[C@H](CC(N)=O)NC(=O)[C@H](CCC(N)=O)NC1=O)[C@@H](C)CC` (stereo partly shown) [5a-IRDye]: the “accumulation in other explanted organs” value is “accumulated also in kidney, lung, and liver, and little or not at all in heart, brain, muscle, bone, spleen, intestine, and stomach”.

The record behind these values is publication PMC9760430, “A stapled chromogranin A-derived peptide homes in on tumors that express αvβ6 or αvβ8 integrins” (International Journal of Biological Sciences, 2023).
